Measurements published in paper PMC4619498.

Biological target: His-tagged recombinant Ebola virus glycoprotein (rGP) expressed in insect cells (Ebola virus (EBOV)) (UniProt Q05320)
Assay: ELISA

## scFv-13C6
  GP binding affinity (absorbance normalized by the negative control) (normalized units): 11.1
  absorbance signal ratio between positive binding samples and blanks: 19.1
  ratio of GP-binding affinity to HA-RBD affinity (GP/HA): 5

## Fab-KZ52
  GP binding affinity (absorbance normalized by the negative control): 16.6
  absorbance signal ratio between positive binding samples and blanks: 10.2
  ratio of GP-binding affinity to HA-RBD affinity (GP/HA): 3.91

## scFv-13F6
  GP binding affinity (absorbance normalized by the negative control) (normalized units): 9.65
  absorbance signal ratio between positive binding samples and blanks: 13.9
  ratio of GP-binding affinity to HA-RBD affinity (GP/HA): 4.48
